# Measured values reported in patent US20210155955A1, “THERAPEUTIC CONSTRUCTS FOR TREATING CANCER” (CANCER TARGETING SYSTEMS, INC., priority 2018, published 2021).
# Test system: B16F10-Red-FLuc mouse melanoma cells
# Assay: B16F10-Red-FLuc experimental metastasis to the lung, N/P=4 and N/P=6 versus recombinant mIL-12 (Example 9)
# Assay type: in vivo, C57BL/6 mice
# Method: The anti-tumor effect of nanoparticles containing PEG-mIL12 and expressing mIL-12 was compared to recombinant mIL-12 protein administered subcutaneously. The experimental design was as Example 8 but nanoparticles were prepared at N/P=4 and N/P=6 ratios. Nanoparticles were dosed as before for N/P=6, however, for the N/P=4 formulation the dose was maintained at 2 mg/kg in 10 mL/kg at day 8. For dosing of the recombinant protein, 10 μg of recombinant mIL-12 (PeproTech, Rocky Hill, N.J., USA) were reconstituted in PBS to make a 100 μg/mL stock solution. Dosing of the animals was at 4 μg/kg for the initial dose (Day 5) followed by four subsequent doses 12 μg/kg at the same intervals as the nanoparticles (Day 8, 11, 14 and 17).
molecule,measurement,setting,value
"recombinant mIL-12: recombinant mIL-12 protein (PeproTech) administered subcutaneously (protein, UniProt P43431 23-215; P43432 23-335, looked up) Interleukin-12 subunit alpha: RVIPVSGPARCLSQSRNLLKTTDDMVKTAREKLKHYSCTAEDIDHEDITRDQTSTLKTCLPLELHKNESCLATRETSSTTRGSCLPPQKTSLMMTLCLGSIYEDLKMYQTEFQAINAALQNHNHQQIILDKGMLVAIDELMQSLNHNGETLRQKPPVGEADPYRVKMKLCILLHAFSTRVVTINRVMGYLSSA Interleukin-12 subunit beta: MWELEKDVYVVEVDWTPDAPGETVNLTCDTPEEDDITWTSDQRHGVIGSGKTLTITVKEFLDAGQYTCHKGGETLSHSHLLLHKKENGIWSTEILKNFKNKTFLKCEAPNYSGRFTCSWLVQRNMDLKFNIKSSSSSPDSRAVTCGMASLSAEKVTLDQRDYEKYSVSCQEDVTCPTAEETLPIELALEARQQNKYENYSTSFFIRDIIKPDPPKNLQMKPLKNSQVEVSWEYPDSWSTPHSYFSLKFFVRIQRKKEKMKETEEGCNQKGAFLVEKTSTEVQCKGGNVCVQAQDRYYNSSCSKWACVPCRVRS",Median survival time compared with Trehalose control,"Log-rank test: p≤0.01 for formulations of PEG-mIL12, p≤0.05 for recombinant mIL-12, Trehalose 22.0 days",significantly longer
same,tumor growth by luminescence readings compared with 9.5% Trehalose control,Study Day 19,significant (p≤0.05) inhibition of tumor growth
same,Median survival time,"nanoparticles i.v. 2 mg/kg Days 5, 8, 11, 14, 17 (N/P=6: 1 mg/kg Day 8), recombinant mIL-12 subcutaneously 4 μg/kg Day 5 then 12 μg/kg",25.0 days
